{"source": "paper PMC12318605", "key": {"[1]": {"molecular_target": "His249 (UniProt position 249, PGVGTHVADCI)", "test": "NMR", "conditions": "25 °C; 50 mM NaCl; 20 mM sodium phosphate (starting pH 6.8; pH adjusted with HCl or NaOH); 0.1 mM 13C-labelled hOGG1(K249H); no DNA is mentioned in the sample (apparently free enzyme)"}, "[2]": {"molecular_target": "Asp268 (UniProt position 268, QAVPVDVHMWH)", "test": "kinetics", "conditions": "15 °C; 100 mM NaCl; 50 mM citric acid-Na2HPO4; Single-turnover conditions: 10 µM hOGG1(K249H) with 5.0 µM oxoG-containing DNA duplex F-oG23/C23 (substrate-bound enzyme)"}}, "data": [{"substance": "8-oxoguanine DNA glycosylase 1 (hOGG1), K249H mutant (Homo sapiens; K249H)", "values": [{"measurement": "pKa", "setting": "[1]", "value": "5.54 ± 0.05"}, {"measurement": "pKa", "setting": "[2]", "value": "4.5 ± 0.39"}]}]}
